Data reported in patent US20240010696A1 (Pfizer, published 2024).

Tests used:
[1] = molecular target: human IL-12 receptor on cells (human, UniProt P42701 24-662; Q99665 24-862); assay: cell-based or functional assay
human PD1 = molecular target: T1, human PD1 (human, UniProt Q15116 25-167, limits assumed); assay: binding kinetics to hPD1, method not stated
T1 construct: the construct is not described; also called hPD1; programmed cell death protein 1
T1 sequence (Q15116 25-167 limits assumed): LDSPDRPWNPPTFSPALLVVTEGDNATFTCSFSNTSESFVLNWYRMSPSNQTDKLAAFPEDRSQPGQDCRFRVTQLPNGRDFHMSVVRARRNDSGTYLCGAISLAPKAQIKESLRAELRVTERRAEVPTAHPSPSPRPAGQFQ

human IL-12 receptor on cells, sequence (Q99665 24-862, chain 2 of 2, other chains not shown): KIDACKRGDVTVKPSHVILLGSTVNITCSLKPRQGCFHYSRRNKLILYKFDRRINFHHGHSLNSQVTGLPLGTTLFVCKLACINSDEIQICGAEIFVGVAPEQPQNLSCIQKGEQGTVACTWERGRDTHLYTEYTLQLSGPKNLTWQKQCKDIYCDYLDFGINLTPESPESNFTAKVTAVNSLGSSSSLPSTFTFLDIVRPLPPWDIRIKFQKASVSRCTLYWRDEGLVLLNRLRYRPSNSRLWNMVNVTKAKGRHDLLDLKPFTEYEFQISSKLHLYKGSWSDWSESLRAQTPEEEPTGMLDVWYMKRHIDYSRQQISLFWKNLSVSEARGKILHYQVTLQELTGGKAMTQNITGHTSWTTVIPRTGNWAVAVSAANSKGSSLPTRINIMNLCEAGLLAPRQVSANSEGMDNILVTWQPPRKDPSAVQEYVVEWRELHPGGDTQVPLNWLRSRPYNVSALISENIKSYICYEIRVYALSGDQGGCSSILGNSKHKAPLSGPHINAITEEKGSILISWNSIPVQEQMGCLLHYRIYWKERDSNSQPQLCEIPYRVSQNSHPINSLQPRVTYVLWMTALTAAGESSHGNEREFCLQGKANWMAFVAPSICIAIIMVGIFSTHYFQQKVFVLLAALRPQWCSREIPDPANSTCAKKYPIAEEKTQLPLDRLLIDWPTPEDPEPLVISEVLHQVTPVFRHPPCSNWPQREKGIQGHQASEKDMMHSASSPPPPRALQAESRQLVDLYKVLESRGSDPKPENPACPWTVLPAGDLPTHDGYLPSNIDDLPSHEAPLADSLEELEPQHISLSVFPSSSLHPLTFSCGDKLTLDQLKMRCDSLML

Row | CD4 T cell activation assay PSTAT4 EC50 (ug/ml); Donor #1 [1] | CD4 T cell activation assay PSTAT4 EC50 (ug/ml); Donor #2 [1] | Kd (human PD1) | koff (human PD1) | kon (human PD1) | t1/2 (human PD1) | Binder
1 | 0.139 µg/mL | 0.998 µg/mL | – | – | – | – | H10/TPP-76868 fusion protein (other) heavy 1: EVQLVESGGGLVQPGGSLRLSCAASGFSFGDFDMRWFRQAPGKGLEWVGLIKSRAYLEATEFAASVEGRFTISRDDAKNSAYLQMNSLRAEDTAVYYCTRDSYSSGLLDYWGQGTLVTVSSASTKGPSVFPLAPSSKSTSGGTAALGCLVKDYFPEPVTVSWNSGALTSGVHTFPAVLQSSGLYSLSSVVTVPSSSLGTQTYICNVNHKPSNTKVDKKVEPKSCDKTHTCPPCPAPEAAGAPSVFLFPPKPKDTLMISRTPEVTCVVVDVSHEDPEVKFNWYVDGVEVHNAKTKPREEQYNSTYRVVSVLTVLHQDWLNGKEYKCKVSNKALPAPIEKTISKAKGQPREPQVYTLPPCREEMTKNQVSLSCAVKGFYPSDIAVEWESNGQPENNYKTTPPVLDSDGSFFLVSKLTVDKSRWQQGNVFSCSVMHEALHNHYTQKSLSLSPGK heavy 2: EVQLVESGGGLVQPGGSLRLSCAASGFSFGDFDMRWFRQAPGKGLEWVGLIKSRAYLEATEFAASVEGRFTISRDDAKNSAYLQMNSLRAEDTAVYYCTRDSYSSGLLDYWGQGTLVTVSSASTKGPSVFPLAPSSKSTSGGTAALGCLVKDYFPEPVTVSWNSGALTSGVHTFPAVLQSSGLYSLSSVVTVPSSSLGTQTYICNVNHKPSNTKVDKKVEPKSCDKTHTCPPCPAPEAAGAPSVFLFPPKPKDTLMISRTPEVTCVVVDVSHEDPEVKFNWYVDGVEVHNAKTKPREEQYNSTYRVVSVLTVLHQDWLNGKEYKCKVSNKALPAPIEKTISKAKGQPREPQVCTLPPSREEMTKNQVSLWCLVKGFYPSDIAVEWESNGQPENNYKTTPPVLDSDGSFFLYSKLTVDKSRWQQGNVFSCSVMHEALHNHYTQKSLSLSPGSGGGGSGGGGSGGGGRNLPVATPDPGMFPCLHHSQNLLRAVSNMLQKARQTLEFYPCTSEEIDHEDITKDKTSTVEACLPLELTKNESCLNSRETSFITNGSCLASRKTSFMMALCLSSIYEDLKMYQVEFKTMNAKLLMDPKRQIFLDQNMLAVIDELMQALNFNSETVPQKSSLEEPDFAKTKIKLCILLHAFRIRAVTIDRVMSYLNAS light: DIQMTQSPSSLSASVGDRVTITCRASQGISNYLAWFQQKPGKAPKRLIYAAQIPGSGVPSRFSGSGSGTDFTLTISSLQPEDFATYYCLQHYSYPLTFGGGTKVEIKRTVAAPSVFIFPPSDEQLKSGTASVVCLLNNFYPREAKVQWKVDNALQSGNSQESVTEQDSKDSTYSLSSTLTLSKADYEKHKVYACEVTHQGLSSPVTKSFNRGEC IWELKKDVYVVELDWYPDAPGEMVVLTCDTPEEDGITWTLDQSSEVLGSGKTLTIQVKEFGDAGQYTCHKGGEVLSHSLLLLHKKEDGIWSTLILKDQKEPKNKTFLRCEAKNYSGRFTCWWLTTISTDLTFSVKSSRGSSDPQGVTCGAATLSAERVRGDNKEYEYSVECQEDSACPAAEESLPIEVMVDAVHKLKYENYTSSFFIRDIIKPDPPKNLQLKPLKNSRQVEVSWEYPDTWSTPHSYFSLTFCVQVQGGGGDRVFTDKTSATVICRKNASISVRAQDRYYSSSWSEWASVPCS
2 | 0.235 µg/mL | 1.54 µg/mL | – | – | – | – | H10/TPP-77658 fusion protein (other) heavy 1: EVQLVESGGGLVQPGGSLRLSCAASGFSFGDFDMRWFRQAPGKGLEWVGTIKSRAYLEATEFAASVEGRFTISRDDAKNSAYLQMNSLRAEDTAVYYCTRDAYSSGLLDYWGQGTLVTVSSASTKGPSVFPLAPSSKSTSGGTAALGCLVKDYFPEPVTVSWNSGALTSGVHTFPAVLQSSGLYSLSSVVTVPSSSLGTQTYICNVNHKPSNTKVDKKVEPKSCDKTHTCPPCPAPEAAGAPSVFLFPPKPKDTLMISRTPEVTCVVVDVSHEDPEVKFNWYVDGVEVHNAKTKPREEQYNSTYRVVSVLTVLHQDWLNGKEYKCKVSNKALPAPIEKTISKAKGQPREPQVYTLPPCREEMTKNQVSLSCAVKGFYPSDIAVEWESNGQPENNYKTTPPVLDSDGSFFLVSKLTVDKSRWQQGNVFSCSVMHEALHNHYTQKSLSLSPGK heavy 2: EVQLVESGGGLVQPGGSLRLSCAASGFSFGDFDMRWFRQAPGKGLEWVGTIKSRAYLEATEFAASVEGRFTISRDDAKNSAYLQMNSLRAEDTAVYYCTRDAYSSGLLDYWGQGTLVTVSSASTKGPSVFPLAPSSKSTSGGTAALGCLVKDYFPEPVTVSWNSGALTSGVHTFPAVLQSSGLYSLSSVVTVPSSSLGTQTYICNVNHKPSNTKVDKKVEPKSCDKTHTCPPCPAPEAAGAPSVFLFPPKPKDTLMISRTPEVTCVVVDVSHEDPEVKFNWYVDGVEVHNAKTKPREEQYNSTYRVVSVLTVLHQDWLNGKEYKCKVSNKALPAPIEKTISKAKGQPREPQVCTLPPSREEMTKNQVSLWCLVKGFYPSDIAVEWESNGQPENNYKTTPPVLDSDGSFFLYSKLTVDKSRWQQGNVFSCSVMHEALHNHYTQKSLSLSPGSGGGGSGGGGSGGGGRNLPVATPDPGMFPCLHHSQNLLRAVSNMLQKARQTLEFYPCTSEEIDHEDITKDKTSTVEACLPLELTKNESCLNSRETSFITNGSCLASRKTSFMMALCLSSIYEDLKMYQVEFKTMNAKLLMDPKRQIFLDQNMLAVIDELMQALNFNSETVPQKSSLEEPDFAKTKIKLCILLHAFRIRAVTIDRVMSYLNAS light: DIQMTQSPSSLSASVGDRVTITCRASQGISNYLAWFQQKPGKAPKRLIYAAQIPGSGVPSRFSGSGSGTDFTLTISSLQPEDFATYYCLQHYSYPLTFGGGTKVEIKRTVAAPSVFIFPPSDEQLKSGTASVVCLLNNFYPREAKVQWKVDNALQSGNSQESVTEQDSKDSTYSLSSTLTLSKADYEKHKVYACEVTHQGLSSPVTKSFNRGEC IWELKKDVYVVELDWYPDAPGEMVVLTCDTPEEDGITWTLDQSSEVLGSGKTLTIQVKEFGDAGQYTCHKGGEVLSHSLLLLHKKEDGIWSTLILKDQKEPKNKTFLRCEAKNYSGRFTCWWLTTISTDLTFSVKSSRGSSDPQGVTCGAATLSAERVRGDNKEYEYSVECQEDSACPAAEESLPIEVMVDAVHKLKYENYTSSFFIRDIIKPDPPKNLQLKPLKNSRQVEVSWEYPDTWSTPHSYFSLTFCVQVQGGGGDRVFTDKTSATVICRKNASISVRAQDRYYSSSWSEWASVPCS
3 | – | – | 7 nM | 0.000765 s⁻¹ | 109000 M⁻¹ s⁻¹ | 906 s (not printed; inferred from ln2/kd) | TPP-77658 (antibody, V domains shown) VH: EVQLVESGGGLVQPGGSLRLSCAASGFSFGDFDMRWFRQAPGKGLEWVGTIKSRAYLEATEFAASVEGRFTISRDDAKNSAYLQMNSLRAEDTAVYYCTRDAYSSGLLDYWGQGTLVTVSS VL: DIQMTQSPSSLSASVGDRVTITCRASQGISNYLAWFQQKPGKAPKRLIYAAQIPGSGVPSRFSGSGSGTDFTLTISSLQPEDFATYYCLQHYSYPLTFGGGTKVEIK

Second part, the binder before the results:

Row | Binder | CD4 T cell activation assay PSTAT4 EC50 (ug/ml); Donor #1 [1] | CD4 T cell activation assay PSTAT4 EC50 (ug/ml); Donor #2 [1] | Kd (human PD1) | koff (human PD1) | kon (human PD1) | t1/2 (human PD1)
4 | TPP-76868 (antibody, V domains shown) VH: EVQLVESGGGLVQPGGSLRLSCAASGFSFGDFDMRWFRQAPGKGLEWVGLIKSRAYLEATEFAASVEGRFTISRDDAKNSAYLQMNSLRAEDTAVYYCTRDSYSSGLLDYWGQGTLVTVSS VL: DIQMTQSPSSLSASVGDRVTITCRASQGISNYLAWFQQKPGKAPKRLIYAAQIPGSGVPSRFSGSGSGTDFTLTISSLQPEDFATYYCLQHYSYPLTFGGGTKVEIK | – | – | 3 nM | 0.000391 s⁻¹ | 135000 M⁻¹ s⁻¹ | 1770 s (not printed; inferred from ln2/kd)
5 | TPP-68807 (antibody, V domains shown) VH: EVQLVESGGGLVQPGGSLRLSCAASGFSFGDFDMRWFRQAPGKGLEWVGLIKSKAYRYATEFAASVEGRFTISRDDAKNSAYLQMNSLRAEDTAVYYCTRDSYSSGLLDYWGQGTLVTVSS VL: DIQMTQSPSSLSASVGDRVTITCRASQGISNYLAWFQQKPGKAPKRLIYAASIPGSGVPSRFSGSGSGTDFTLTISSLQPEDFATYYCLQHKSYPLTFGGGTKVEIK | – | – | 3 nM | 0.000251 s⁻¹ | 78500 M⁻¹ s⁻¹ | 2760 s (not printed; inferred from ln2/kd)
